Laboratory results as given in patent publication US20180244730A1.

What was measured:
[1] = target: SnoopCatcher (Streptococcus pneumoniae); experiment: time-course of isopeptide bond formation, SDS-PAGE densitometry, 1:1 ratio
[2] = target: SnoopCatcher (Streptococcus pneumoniae); experiment: time-course of isopeptide bond formation, SDS-PAGE densitometry, excess of SnoopTag-MBP

**Q.** SnoopTag-MBP was tested. Which reaction yield [1] did it give?
**A.** 80%

**Q.** What about the percent of SnoopCatcher consumed [2] of the same substance?
**A.** 100%
